Test [1] deals with SNAP complex (SNAPc) immobilized on Strep-Tactin beads, Q5SXM2;Q92966;Q13487;Q16533;O75971. In words: pull-down on immobilized SNAPc, immunoblot quantification. The following applies: chain shown with the change. On the technique in general: A western blot detects proteins with antibodies after separation by electrophoresis.
Test [2] addresses SNAP complex (SNAPc), Q5SXM2;Q92966;Q13487;Q16533;O75971. In words: Flag-bead pull-down, immunoblot quantification. The following applies: chain shown with the change.

B1: TFIIB, full-length human, Flag- and His-tagged, Q00403 V245A; P246A; G247A; R248A; S249A (protein)
chain: MASTSRLDALPRVTCPNHPDAILVEDYRAGDMICPECGLVVGDRVIDVGSEWRTFSNDKATKDPSRVGDSQNPLLSDGDLSTMIGKGTGAASFDEFGNSKYQNRRTMSSSDRAMMNAFKEITTMADRINLPRNIVDRTNNLFKQVYEQKSLKGRANDAIASACLYIACRQEGVPRTFKEICAVSRISKKEIGRCFKLILKALETSVDLITTGDFMSRFCSNLCLPKQVQMAATHIARKAVELDLAAAAAPISVAAAAIYMASQASAEKRTQKEIGDIAGVADVTIRQSYRLIYPRAPDLFPTDFKFDTPVDKLPQL
With B1, the ratio to parent in test [1] was determined as 0.57.

B2: TFIIB, full-length human, Flag- and His-tagged, Q00403 R169E; K188E (protein)
chain: MASTSRLDALPRVTCPNHPDAILVEDYRAGDMICPECGLVVGDRVIDVGSEWRTFSNDKATKDPSRVGDSQNPLLSDGDLSTMIGKGTGAASFDEFGNSKYQNRRTMSSSDRAMMNAFKEITTMADRINLPRNIVDRTNNLFKQVYEQKSLKGRANDAIASACLYIACEQEGVPRTFKEICAVSRISEKEIGRCFKLILKALETSVDLITTGDFMSRFCSNLCLPKQVQMAATHIARKAVELDLVPGRSPISVAAAAIYMASQASAEKRTQKEIGDIAGVADVTIRQSYRLIYPRAPDLFPTDFKFDTPVDKLPQL
As to B2, the ratio to parent in test [2] was determined as 0.13.

B3: TFIIB, full-length human, Flag- and His-tagged, Q00403 S205A; V206A; D207A; L208A; I209A (protein)
chain: MASTSRLDALPRVTCPNHPDAILVEDYRAGDMICPECGLVVGDRVIDVGSEWRTFSNDKATKDPSRVGDSQNPLLSDGDLSTMIGKGTGAASFDEFGNSKYQNRRTMSSSDRAMMNAFKEITTMADRINLPRNIVDRTNNLFKQVYEQKSLKGRANDAIASACLYIACRQEGVPRTFKEICAVSRISKKEIGRCFKLILKALETAAAAATTGDFMSRFCSNLCLPKQVQMAATHIARKAVELDLVPGRSPISVAAAAIYMASQASAEKRTQKEIGDIAGVADVTIRQSYRLIYPRAPDLFPTDFKFDTPVDKLPQL
For the molecule B3, the ratio to parent in test [1] turned out to be 0.54.

B4: TFIIB, full-length human, Flag- and His-tagged, Q00403 R169E (protein)
chain: MASTSRLDALPRVTCPNHPDAILVEDYRAGDMICPECGLVVGDRVIDVGSEWRTFSNDKATKDPSRVGDSQNPLLSDGDLSTMIGKGTGAASFDEFGNSKYQNRRTMSSSDRAMMNAFKEITTMADRINLPRNIVDRTNNLFKQVYEQKSLKGRANDAIASACLYIACEQEGVPRTFKEICAVSRISKKEIGRCFKLILKALETSVDLITTGDFMSRFCSNLCLPKQVQMAATHIARKAVELDLVPGRSPISVAAAAIYMASQASAEKRTQKEIGDIAGVADVTIRQSYRLIYPRAPDLFPTDFKFDTPVDKLPQL
Turning to B4, the ratio to parent in test [2] stood at 0.32.

B5: TFIIB, full-length human, Flag- and His-tagged, Q00403 R185A; K188A; K189A (protein)
chain: MASTSRLDALPRVTCPNHPDAILVEDYRAGDMICPECGLVVGDRVIDVGSEWRTFSNDKATKDPSRVGDSQNPLLSDGDLSTMIGKGTGAASFDEFGNSKYQNRRTMSSSDRAMMNAFKEITTMADRINLPRNIVDRTNNLFKQVYEQKSLKGRANDAIASACLYIACRQEGVPRTFKEICAVSAISAAEIGRCFKLILKALETSVDLITTGDFMSRFCSNLCLPKQVQMAATHIARKAVELDLVPGRSPISVAAAAIYMASQASAEKRTQKEIGDIAGVADVTIRQSYRLIYPRAPDLFPTDFKFDTPVDKLPQL
For the molecule B5, the ratio to parent in test [1] amounted to 0.04.

Source of the values: paper PMC6004067.
